PMC11087509, “Multimodal binding and inhibition of bacterial ribosomes by the antimicrobial peptides Api137 and Api88” (Nature Communications, 2024)
[ ]: non-standard residue; d: D form. Gu = N-terminal tetramethylguanidine; Orn = NCCC[C@H](N)C(=O)O

What was measured:
Assay in all cases: fluorescence polarisation; cf-labeled peptide (10 µL of 40 nmol/L) added to a 2-fold dilution series (22 steps, 10 µL) of pure 70S ribosome, 50S or 30S subunit; ribosome preparation buffer (20 mmol/L HEPES-KOH, 6 mmol/L MgCl2, 30 mmol/L NH4Cl, pH 7.6); 28 ± 1 °C, 90 min; apparent Kd (average over at least two or three sites)
Settings in all cases: both partners purified
[1] = biological target: purified E. coli 50S ribosomal subunit (E. coli (endogenous in MRE600), UniProt P60723 1-201; P61175 1-110; P0ADZ0 1-100; P0A7M6 1-63; P0A7J3 1-165)
[2] = biological target: purified E. coli 70S ribosome (E. coli (endogenous in BW25113), UniProt P60723 1-201; P61175 1-110; P0ADZ0 1-100; P0A7M6 1-63; P0A7J3 1-165)
[3] = biological target: purified E. coli 30S ribosomal subunit (E. coli (endogenous in MRE600))

Row | Binder | Kd [1] [µM] | Kd [2] [µM] | fold weaker binding than to the 50S subunit [3] [fold]
1 | Gu-[Orn](5(6)‑carboxyfluorescein)NNRPVYIPRPRPPHPRL-OH [cf-Api137 (5(6)-carboxyfluorescein-labeled Api137, Gu-ONNRPVYIPRPRPPHPRL-OH)] | 2.2 | 4.73 | ~10
2 | Gu-[Orn](5(6)‑carboxyfluorescein)NNRPVYIPRPRPPHPRL-NH2 [cf-Api88 (5(6)-carboxyfluorescein-labeled Api88, Gu-ONNRPVYIPRPRPPHPRL-NH2)] | 0.6 | 1.8 | ~23
